According to article PMC5614898:

Biological target: T1, FOXA2-DBD without wing 2 (human, UniProt Q9Y261 157-239)
T1 sequence: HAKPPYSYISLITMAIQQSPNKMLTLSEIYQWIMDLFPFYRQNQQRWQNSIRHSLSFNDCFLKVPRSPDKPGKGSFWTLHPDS
Assay: ITC

B1: DBE2 (Daf-16 family binding element 2) (dsDNA)
DNA 1: TGCAAAATGTAAACAAGACT
DNA 2: AGTCTTGTTTACATTTTGCA
  Kd: 3.5 ± 0.3 µM
